Tests used:
[1] = target: All1/Af4 fusion protein (endogenous, SEMK2 cells with t(4;11)), Q03164
[2] = target: All1/Af9 fusion protein (endogenous, PER377 cells with t(9;11)), Q03164
Chain of All1/Af9 fusion protein (endogenous, PER377 cells with t(9;11)), Q03164 (Q03164 other isoform, or with tags, fused parts or gaps): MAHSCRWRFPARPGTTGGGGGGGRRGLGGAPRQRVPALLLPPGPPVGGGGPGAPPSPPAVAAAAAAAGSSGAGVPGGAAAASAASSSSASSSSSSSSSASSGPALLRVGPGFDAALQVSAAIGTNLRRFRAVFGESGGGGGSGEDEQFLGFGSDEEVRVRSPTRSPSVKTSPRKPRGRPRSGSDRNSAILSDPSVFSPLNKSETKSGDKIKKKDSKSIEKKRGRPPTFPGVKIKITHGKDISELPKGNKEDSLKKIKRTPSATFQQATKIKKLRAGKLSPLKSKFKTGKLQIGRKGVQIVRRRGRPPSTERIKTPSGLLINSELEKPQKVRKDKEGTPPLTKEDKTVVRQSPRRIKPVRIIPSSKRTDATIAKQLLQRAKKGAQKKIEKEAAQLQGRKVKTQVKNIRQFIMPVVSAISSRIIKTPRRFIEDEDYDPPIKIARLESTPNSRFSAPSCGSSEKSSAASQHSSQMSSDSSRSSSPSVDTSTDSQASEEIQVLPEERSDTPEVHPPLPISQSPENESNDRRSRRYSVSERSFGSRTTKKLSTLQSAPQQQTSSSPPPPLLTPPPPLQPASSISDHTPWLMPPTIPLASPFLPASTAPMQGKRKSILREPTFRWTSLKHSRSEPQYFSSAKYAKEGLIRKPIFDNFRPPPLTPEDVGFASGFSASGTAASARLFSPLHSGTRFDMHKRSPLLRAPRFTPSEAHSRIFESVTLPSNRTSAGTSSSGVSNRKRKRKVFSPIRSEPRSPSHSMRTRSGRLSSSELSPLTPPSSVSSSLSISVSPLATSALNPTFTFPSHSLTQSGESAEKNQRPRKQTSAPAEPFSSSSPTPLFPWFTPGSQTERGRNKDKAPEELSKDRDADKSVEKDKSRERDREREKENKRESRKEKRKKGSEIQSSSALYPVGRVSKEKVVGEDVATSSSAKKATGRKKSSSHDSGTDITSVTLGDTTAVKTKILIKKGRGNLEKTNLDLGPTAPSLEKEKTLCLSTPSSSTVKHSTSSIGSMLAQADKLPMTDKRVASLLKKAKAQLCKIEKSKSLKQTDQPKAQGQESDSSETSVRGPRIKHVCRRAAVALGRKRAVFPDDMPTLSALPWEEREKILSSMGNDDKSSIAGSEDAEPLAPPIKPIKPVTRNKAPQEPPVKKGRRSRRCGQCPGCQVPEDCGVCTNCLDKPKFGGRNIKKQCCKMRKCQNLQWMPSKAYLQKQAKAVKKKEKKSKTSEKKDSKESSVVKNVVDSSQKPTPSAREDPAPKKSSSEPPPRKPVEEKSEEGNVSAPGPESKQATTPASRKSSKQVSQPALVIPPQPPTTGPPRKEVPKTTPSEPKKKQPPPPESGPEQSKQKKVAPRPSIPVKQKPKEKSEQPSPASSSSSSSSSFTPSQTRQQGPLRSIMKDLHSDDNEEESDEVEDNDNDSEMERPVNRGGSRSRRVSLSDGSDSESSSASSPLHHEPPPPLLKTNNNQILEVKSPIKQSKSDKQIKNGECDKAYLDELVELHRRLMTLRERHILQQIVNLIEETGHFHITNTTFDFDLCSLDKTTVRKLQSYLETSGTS

Chain of All1/Af4 fusion protein (endogenous, SEMK2 cells with t(4;11)), Q03164 (Q03164 other isoform, or with tags, fused parts or gaps): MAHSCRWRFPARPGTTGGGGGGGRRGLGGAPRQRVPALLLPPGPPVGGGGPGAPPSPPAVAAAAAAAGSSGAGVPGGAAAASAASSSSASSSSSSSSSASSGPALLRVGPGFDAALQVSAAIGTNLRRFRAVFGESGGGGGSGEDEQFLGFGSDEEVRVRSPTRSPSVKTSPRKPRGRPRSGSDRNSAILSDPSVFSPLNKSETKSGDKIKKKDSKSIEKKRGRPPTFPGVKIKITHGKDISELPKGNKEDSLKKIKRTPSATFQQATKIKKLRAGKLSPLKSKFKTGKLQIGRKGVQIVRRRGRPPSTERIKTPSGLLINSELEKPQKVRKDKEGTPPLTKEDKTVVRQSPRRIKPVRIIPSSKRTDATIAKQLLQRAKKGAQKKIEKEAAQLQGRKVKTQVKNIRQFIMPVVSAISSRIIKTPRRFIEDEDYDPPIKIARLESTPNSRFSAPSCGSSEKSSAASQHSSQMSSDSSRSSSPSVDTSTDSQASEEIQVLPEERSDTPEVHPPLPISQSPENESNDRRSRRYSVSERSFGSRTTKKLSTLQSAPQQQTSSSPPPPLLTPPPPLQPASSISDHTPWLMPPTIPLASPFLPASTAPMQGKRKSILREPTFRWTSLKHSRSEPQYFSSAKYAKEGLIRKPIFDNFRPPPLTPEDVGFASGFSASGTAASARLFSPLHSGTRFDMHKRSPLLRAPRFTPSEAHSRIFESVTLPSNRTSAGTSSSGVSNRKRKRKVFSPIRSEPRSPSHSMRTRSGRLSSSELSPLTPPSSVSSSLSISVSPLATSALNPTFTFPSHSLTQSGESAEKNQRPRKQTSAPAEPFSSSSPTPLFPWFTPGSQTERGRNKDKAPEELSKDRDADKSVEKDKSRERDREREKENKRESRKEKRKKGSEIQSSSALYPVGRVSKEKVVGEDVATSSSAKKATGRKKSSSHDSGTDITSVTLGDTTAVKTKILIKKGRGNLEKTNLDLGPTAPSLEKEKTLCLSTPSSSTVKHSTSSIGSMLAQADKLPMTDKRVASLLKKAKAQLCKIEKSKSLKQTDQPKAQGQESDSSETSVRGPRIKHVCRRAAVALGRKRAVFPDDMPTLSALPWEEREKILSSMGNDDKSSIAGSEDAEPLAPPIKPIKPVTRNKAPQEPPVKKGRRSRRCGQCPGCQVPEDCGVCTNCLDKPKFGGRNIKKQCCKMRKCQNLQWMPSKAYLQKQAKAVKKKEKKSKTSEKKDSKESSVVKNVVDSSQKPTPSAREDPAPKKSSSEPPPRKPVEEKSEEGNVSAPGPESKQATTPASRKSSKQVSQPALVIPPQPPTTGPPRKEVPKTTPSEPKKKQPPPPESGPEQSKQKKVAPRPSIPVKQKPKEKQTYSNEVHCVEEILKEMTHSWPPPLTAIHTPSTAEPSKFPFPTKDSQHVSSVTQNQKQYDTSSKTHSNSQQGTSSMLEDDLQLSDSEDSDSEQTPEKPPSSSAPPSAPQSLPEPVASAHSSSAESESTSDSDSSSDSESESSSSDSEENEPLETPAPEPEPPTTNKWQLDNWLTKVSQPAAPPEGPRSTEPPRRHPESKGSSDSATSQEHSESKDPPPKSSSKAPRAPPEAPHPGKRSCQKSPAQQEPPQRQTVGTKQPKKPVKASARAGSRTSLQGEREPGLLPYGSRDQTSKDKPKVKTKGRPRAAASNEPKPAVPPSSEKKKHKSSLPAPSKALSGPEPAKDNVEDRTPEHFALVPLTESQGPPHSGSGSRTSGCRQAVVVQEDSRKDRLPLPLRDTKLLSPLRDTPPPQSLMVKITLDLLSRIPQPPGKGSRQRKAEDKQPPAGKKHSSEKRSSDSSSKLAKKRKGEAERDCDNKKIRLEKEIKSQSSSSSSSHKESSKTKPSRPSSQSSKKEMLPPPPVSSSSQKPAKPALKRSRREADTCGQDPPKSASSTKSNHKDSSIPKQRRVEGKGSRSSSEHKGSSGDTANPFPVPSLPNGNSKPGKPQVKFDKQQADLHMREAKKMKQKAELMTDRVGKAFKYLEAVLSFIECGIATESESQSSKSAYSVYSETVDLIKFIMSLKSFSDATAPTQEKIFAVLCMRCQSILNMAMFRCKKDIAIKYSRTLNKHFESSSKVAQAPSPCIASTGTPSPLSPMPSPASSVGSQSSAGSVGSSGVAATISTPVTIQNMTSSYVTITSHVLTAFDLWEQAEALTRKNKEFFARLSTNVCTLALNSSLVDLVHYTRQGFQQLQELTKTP

B1: Drosha (endogenous, immunoprecipitated from SEMK2 or PER377 nuclear extracts) (protein)
chain: MMQGNTCHRMSFHPGRGCPRGRGGHGARPSAPSFRPQNLRLLHPQQPPVQYQYEPPSAPSTTFSNSPAPNFLPPRPDFVPFPPPMPPSAQGPLPPCPIRPPFPNHQMRHPFPVPPCFPPMPPPMPCPNNPPVPGAPPGQGTFPFMMPPPSMPHPPPPPVMPQQVNYQYPPGYSHHNFPPPSFNSFQNNPSSFLPSANNSSSPHFRHLPPYPLPKAPSERRSPERLKHYDDHRHRDHSHGRGERHRSLDRRERGRSPDRRRQDSRYRSDYDRGRTPSRHRSYERSRERERERHRHRDNRRSPSLERSYKKEYKRSGRSYGLSVVPEPAGCTPELPGEIIKNTDSWAPPLEIVNHRSPSREKKRARWEEEKDRWSDNQSSGKDKNYTSIKEKEPEETMPDKNEEEEEELLKPVWIRCTHSENYYSSDPMDQVGDSTVVGTSRLRDLYDKFEEELGSRQEKAKAARPPWEPPKTKLDEDLESSSESECESDEDSTCSSSSDSEVFDVIAEIKRKKAHPDRLHDELWYNDPGQMNDGPLCKCSAKARRTGIRHSIYPGEEAIKPCRPMTNNAGRLFHYRITVSPPTNFLTDRPTVIEYDDHEYIFEGFSMFAHAPLTNIPLCKVIRFNIDYTIHFIEEMMPENFCVKGLELFSLFLFRDILELYDWNLKGPLFEDSPPCCPRFHFMPRFVRFLPDGGKEVLSMHQILLYLLRCSKALVPEEEIANMLQWEELEWQKYAEECKGMIVTNPGTKPSSVRIDQLDREQFNPDVITFPIIVHFGIRPAQLSYAGDPQYQKLWKSYVKLRHLLANSPKVKQTDKQKLAQREEALQKIRQKNTMRREVTVELSSQGFWKTGIRSDVCQHAMMLPVLTHHIRYHQCLMHLDKLIGYTFQDRCLLQLAMTHPSHHLNFGMNPDHARNSLSNCGIRQPKYGDRKVHHMHMRKKGINTLINIMSRLGQDDPTPSRINHNERLEFLGDAVVEFLTSVHLYYLFPSLEEGGLATYRTAIVQNQHLAMLAKKLELDRFMLYAHGPDLCRESDLRHAMANCFEALIGAVYLEGSLEEAKQLFGRLLFNDPDLREVWLNYPLHPLQLQEPNTDRQLIETSPVLQKLTEFEEAIGVIFTHVRLLARAFTLRTVGFNHLTLGHNQRMEFLGDSIMQLVATEYLFIHFPDHHEGHLTLLRSSLVNNRTQAKVAEELGMQEYAITNDKTKRPVALRTKTLADLLESFIAALYIDKDLEYVHTFMNVCFFPRLKEFILNQDWNDPKSQLQQCCLTLRTEGKEPDIPLYKTLQTVGPSHARTYTVAVYFKGERIGCGKGPSIQQAEMGAAMDALEKYNFPQMAHQKRFIERKYRQELKEMRWEREHQEREPDETEDIKK
in vitro cleavage of miR-191 and miR-155 probes by immuno-purified Drosha [1]: Drosha containing All1/Af4 exhibited the strongest processing activity
in vitro cleavage of miR-191 and miR-155 probes by immuno-purified Drosha [2]: Drosha containing All1/Af9 had less processing activity, similar to that of the Drosha:FLAG preparation

Source: patent publication US8053186
